This is an account of results in US20250361314A1 (SHANGHAI HUAOTA BIOPHARMACEUTICAL, published 2025).

Experiment [1] concerns the target T1, Human CD39 on CHOK1-huCD39-10B6 cells overexpressing CD39 (human, UniProt P49961 1-510).
T1 sequence (looked up): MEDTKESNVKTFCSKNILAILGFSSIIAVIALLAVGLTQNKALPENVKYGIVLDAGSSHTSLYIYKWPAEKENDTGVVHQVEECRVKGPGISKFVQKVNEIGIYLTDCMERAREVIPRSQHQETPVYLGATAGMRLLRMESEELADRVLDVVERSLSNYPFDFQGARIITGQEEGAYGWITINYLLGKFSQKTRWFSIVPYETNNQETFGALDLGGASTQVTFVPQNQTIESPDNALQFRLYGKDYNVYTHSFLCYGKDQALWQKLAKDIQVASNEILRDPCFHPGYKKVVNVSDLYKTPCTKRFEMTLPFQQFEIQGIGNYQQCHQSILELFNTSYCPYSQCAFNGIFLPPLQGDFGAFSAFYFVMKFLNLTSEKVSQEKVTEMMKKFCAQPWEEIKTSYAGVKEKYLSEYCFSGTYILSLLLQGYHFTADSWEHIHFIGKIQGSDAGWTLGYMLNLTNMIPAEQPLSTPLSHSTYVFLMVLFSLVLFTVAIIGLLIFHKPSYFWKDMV
Briefly: cell-based or functional assay.

A further experiment has as its target T2, Human CD39 antigen (human, UniProt P49961 38-478).
T2 construct: Antigen used as analyte in SPR; also called ENTPD1
T2 sequence (looked up): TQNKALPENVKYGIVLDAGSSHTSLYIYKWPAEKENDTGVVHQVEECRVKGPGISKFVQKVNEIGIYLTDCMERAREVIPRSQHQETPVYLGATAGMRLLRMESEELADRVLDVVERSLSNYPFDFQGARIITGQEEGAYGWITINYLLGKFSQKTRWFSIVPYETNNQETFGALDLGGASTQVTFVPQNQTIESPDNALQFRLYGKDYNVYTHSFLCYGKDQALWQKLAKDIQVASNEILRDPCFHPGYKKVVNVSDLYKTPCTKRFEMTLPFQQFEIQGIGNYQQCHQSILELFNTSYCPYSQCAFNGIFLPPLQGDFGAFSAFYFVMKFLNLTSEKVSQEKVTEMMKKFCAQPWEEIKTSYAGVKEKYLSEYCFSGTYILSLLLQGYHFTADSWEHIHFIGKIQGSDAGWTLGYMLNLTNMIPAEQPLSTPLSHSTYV
Briefly: SPR (Biacore 8K), antibody captured on anti-human capture CM5 chip, antigen as analyte, 1:1 model. As for the experimental part: (§1) An Anti-Human Capture-CM5 chip (GE, #BR-1005-30) was prepared using coupling methods of a Human Antibody Capture Kit (GE, #BR-1008-39) and an amino coupling kit (GE, BR-1000-50). The chip was equilibrated at room temperature for 20-30 mins and loaded into a Biacore 8K instrument. The antigen and antibody were diluted to an experimental working concentration using an equilibration buffer. The antigens were diluted with the equilibrium buffer to 50 nM, and then diluted three-fold for seven concentration gradients, and two zero concentrations (i.e., the equilibrium buffer) and one repeat concentration (typically the lowest concentration repeat) were set. Experimental analysis was performed on 10 antigen concentrations (2 zero concentrations, 7 gradient concentrations, and 1 repeated concentration) in a cyclic manner according to an order of antibody, antigen, and regeneration. The antigen injection flow rate was 30 μL/min, the binding time was 120 s, and the dissociation time was 600 s. Following the analysis, the data was analyzed using the corresponding analysis program to confirm that there was no obvious reference binding. Using Kinetics and a 1:1 binding model, the data was fit to obtain the kinetic related parameters Ka, Kd, and KD values of the bispecific antibodies and parental control antibodies.
(In general: Surface plasmon resonance follows binding to a sensor surface in real time, without labels.)

For experiment [2], the target named is soluble recombinant protein CD73. Briefly: cell-based or functional assay.
Another experiment deals with T3, Human CD73 antigen (human, UniProt P21589 27-547, limits assumed).
T3 construct: Antigen used as analyte in SPR; also called NT5E
T3 sequence (looked up): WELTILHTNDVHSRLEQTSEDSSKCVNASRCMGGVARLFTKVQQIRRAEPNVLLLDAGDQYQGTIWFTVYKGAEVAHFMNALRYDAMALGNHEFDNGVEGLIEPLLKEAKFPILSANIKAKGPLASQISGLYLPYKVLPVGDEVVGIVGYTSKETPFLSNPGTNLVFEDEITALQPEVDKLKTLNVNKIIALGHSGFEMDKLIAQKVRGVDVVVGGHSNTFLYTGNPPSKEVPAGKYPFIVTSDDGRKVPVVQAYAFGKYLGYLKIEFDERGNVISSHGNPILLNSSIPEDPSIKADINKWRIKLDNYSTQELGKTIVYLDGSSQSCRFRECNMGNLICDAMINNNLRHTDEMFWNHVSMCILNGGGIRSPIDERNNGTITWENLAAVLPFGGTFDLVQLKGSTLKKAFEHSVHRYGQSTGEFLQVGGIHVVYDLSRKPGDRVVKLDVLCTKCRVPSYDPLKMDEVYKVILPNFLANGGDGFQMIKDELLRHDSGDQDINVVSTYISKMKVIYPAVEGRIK
Briefly: SPR (Biacore 8K), antibody captured on anti-human capture CM5 chip, antigen as analyte, 1:1 model. As to the method:
as §1

Experiment [3] has as its target T4, Human CD73 on CHOK1-huCD73-3F4 cells overexpressing CD73 (human, UniProt P21589 27-549).
T4 sequence (looked up): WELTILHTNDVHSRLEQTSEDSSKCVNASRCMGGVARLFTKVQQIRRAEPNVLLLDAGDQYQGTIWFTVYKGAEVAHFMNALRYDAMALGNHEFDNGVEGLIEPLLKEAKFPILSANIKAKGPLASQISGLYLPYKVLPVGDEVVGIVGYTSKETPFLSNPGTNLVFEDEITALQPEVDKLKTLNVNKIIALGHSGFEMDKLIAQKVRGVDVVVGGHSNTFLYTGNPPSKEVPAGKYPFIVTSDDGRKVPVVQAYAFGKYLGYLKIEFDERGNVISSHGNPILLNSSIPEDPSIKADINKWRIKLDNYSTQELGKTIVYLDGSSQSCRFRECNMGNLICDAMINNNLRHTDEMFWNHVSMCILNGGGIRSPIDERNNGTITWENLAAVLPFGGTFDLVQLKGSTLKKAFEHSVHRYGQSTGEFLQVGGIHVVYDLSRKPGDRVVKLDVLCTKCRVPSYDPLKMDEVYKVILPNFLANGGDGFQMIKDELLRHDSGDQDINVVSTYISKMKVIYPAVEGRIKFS
Briefly: cell-based or functional assay.

Sequence of soluble recombinant protein CD73 (P21589 whole entry): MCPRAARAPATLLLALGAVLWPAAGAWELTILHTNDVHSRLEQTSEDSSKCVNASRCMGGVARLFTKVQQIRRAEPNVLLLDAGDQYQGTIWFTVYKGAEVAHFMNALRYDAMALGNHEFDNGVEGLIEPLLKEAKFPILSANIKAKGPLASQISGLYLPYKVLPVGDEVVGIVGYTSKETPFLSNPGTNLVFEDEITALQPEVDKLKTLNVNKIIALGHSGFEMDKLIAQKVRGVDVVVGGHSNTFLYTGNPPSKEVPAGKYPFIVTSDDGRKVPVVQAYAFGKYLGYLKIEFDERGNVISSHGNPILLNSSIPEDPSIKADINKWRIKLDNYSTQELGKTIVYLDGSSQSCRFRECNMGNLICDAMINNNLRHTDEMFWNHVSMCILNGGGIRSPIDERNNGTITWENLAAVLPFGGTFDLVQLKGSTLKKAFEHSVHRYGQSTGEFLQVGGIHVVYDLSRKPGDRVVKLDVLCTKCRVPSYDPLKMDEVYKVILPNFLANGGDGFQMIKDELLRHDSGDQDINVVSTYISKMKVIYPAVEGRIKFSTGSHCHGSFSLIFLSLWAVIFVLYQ

B1: 700053 (CD39 nanobody) (VHH)
VHH: QVQLVESGGGLVQPGGSLRLSCAASGSISSIAAMGWYRQAPGKERELVAAITSGGNTNLADSTKGRFTISRDNTKNTVYLQMNSLKPEDTAVYYCNAWGEDDSSWFGTDLCDYWGQGTQVTVSS
notes: In the SPR it was captured on an anti-human antibody capture chip, so the tested construct may carry a human Fc
For the molecule B1, in experiment [1], the “EC50 (µg/mL), inhibition of CD39 ATPase activity on CHOK1-huCD39-10B6 cells (CellTiter Glo)” value was 0.558 µg/mL. In the experiment with Human CD39 antigen, this molecule registered a Kd of 0.14 nM, a koff of 0.000102 s⁻¹ and a kon of 730000 M⁻¹ s⁻¹.

B2: 900698 (CD73 parental monoclonal antibody corresponding to 700038) (antibody, human IgG1, kappa, L234A L235A, V domains shown)
VH: QVQLVESGGGLVKPGGSLRLSCAASGFTFSKYAMSWIRQAPGKGLEWVAEISSGGGYINYADSVKGRFTISRDNAKNSLYLQMNSLRAEDTAVYYCARAIYYYGSSYNYYAMDYWGQGTTVTVSS
VL: DIQMTQSPSSLSASVGDRVTITCRASQDVGTAEAWYQQKPGKAPKLLIYWASTRHTGVPSRFSGSGSGTDFTLTISSLQPEDFATYYCQQYSSYPLTFGQGTKLEIKR
Consider B2, for which the “EC50 (µg/mL), inhibition of enzyme activity of soluble CD73 protein (CellTiter Glo)” value in experiment [2] was found to be 1.74 µg/mL. For the same molecule, in the experiment with Human CD73 antigen, the dissociation constant Kd was determined as 0.382 nM, the koff was 0.000215 s⁻¹ and the kon amounted to 561000 M⁻¹ s⁻¹.

B3: 900725 (CD73 parental monoclonal antibody corresponding to 700035) (antibody, human IgG1, kappa, L234A L235A, V domains shown)
VH: QVQLVQSGAEVKKPGASVKLSCKASGYTFTSYWIHWVRQAPGQGLEWIGMIHPNSGSTYYNEKFKGRATLTVDKSTSTAYMELSSLRSEDTAVYYCARYYGSDYEWYFDVWGQGTTVTVSS
VL: DIQMTQSPSSMSASVGDRVTITCKASQNVRTAVVWYQQKPGKAPKALIYLASNRHTGVPDRFSGSGSGTDFTLTISSLQPEDFATYFCLQHWNYPYTFGQGTKLEIKR
Regarding B3, in experiment [3], the “EC50 (µg/mL), inhibition of enzyme activity of membrane CD73 on CHOK1-huCD73-3F4 cells (CellTiter Glo)” value was 0.32 µg/mL. In the experiment with Human CD73 antigen, this molecule displayed a Kd of 0.184 nM, a koff of 0.000182 s⁻¹ and an on-rate (kon) of 988000 M⁻¹ s⁻¹.

As a reminder, the Kd is the constant that tells how readily two partners part at equilibrium. A high value points to weaker binding. Usually koff stands for a measure of how fast the partners let go of each other. A word on the kon: it is the second-order rate constant of association. Read a high kon as faster complex formation.
